The values that follow come from patent US20240075137A1.

The target of assay [1] is mPVR (recombinant protein) (mouse). Nature of the assay: SPR/ELISA with recombinant proteins.
In assay [2] the target is mPVRL2 HIS (mouse) (UniProt P32507). Kind of assay: ELISA: mPVRIG-mFc titrated on mPVRL2.
For assay [3] the target is unchanged. Kind of assay: ELISA: soluble receptor Fc titrated on immobilized mPVRL2 HIS.
The target in assay [4] is human TIGIT on cells (human) (UniProt Q495A1). Nature of the assay: FACS, Expi293 human TIGIT over-expressing cells.
Chain of human TIGIT on cells (human) (Q495A1 22-141): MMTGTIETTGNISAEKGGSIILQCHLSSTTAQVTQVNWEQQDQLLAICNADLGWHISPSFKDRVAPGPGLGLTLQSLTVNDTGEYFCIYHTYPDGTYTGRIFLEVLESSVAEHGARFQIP
The target is the same in assay [5]. Kind of assay: FACS titration on Expi293 human TIGIT over-expressing cells (gMFI OE:Parental); ± 95% CI; 'Fit: Fair/Good'.
Assay [6] shares this target. Nature of the assay: FACS blocking: Expi293 human TIGIT cells pre-incubated with mAb, then human PVR-m2aFc; lower gMFI = more blocking.

Chain of mPVRL2 HIS (mouse) (P32507 32-351 limits assumed): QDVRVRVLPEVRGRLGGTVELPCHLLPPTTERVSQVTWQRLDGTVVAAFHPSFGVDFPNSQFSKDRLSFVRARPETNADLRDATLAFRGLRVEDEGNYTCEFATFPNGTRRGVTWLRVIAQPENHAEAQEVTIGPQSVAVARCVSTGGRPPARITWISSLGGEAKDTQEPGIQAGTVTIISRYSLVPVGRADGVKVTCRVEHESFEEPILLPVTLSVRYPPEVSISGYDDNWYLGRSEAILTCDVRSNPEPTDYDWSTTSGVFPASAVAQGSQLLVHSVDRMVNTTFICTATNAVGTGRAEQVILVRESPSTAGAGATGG

Take mouse PVRIG-Fc fusion protein: in assay [1], the fold lower affinity than the interaction with mPVRL2 amounted to 10 fold. The concentration giving a half-maximal response (EC50 (read off the curve)) with mPVRL2 HIS (mouse) [2] and with mPVRL2 HIS (mouse) [3] was 2 nM in each case.

In the case of “human PVR-m2aFc (Compugen) (from UniProt P15151 21-343) (Fc fusion)”, in assay [4], the EC90 is 158 nM. For the same substance, the dissociation constant (Kd) in assay [5] amounted to 8.48 nM.

In assay [6], Synagis hIgG4 (antibody) yielded a gMFI of bound PVR-m2aFc at 266 pM mAb of 959, a gMFI of bound PVR-m2aFc at 1.3 nM mAb of 964 and a gMFI of bound PVR-m2aFc at 6.7 nM mAb of 828.
